Laboratory results from patent US10562947B2, “Compositions and methods for preventing or treating diseases, conditions or processes characterized by aberrant fibroblast proliferation and extracellular matrix deposition” (MOERAE MATRIX, INC., priority 2011, dated 2020).

Experiments:
Assay in all cases: Kinase Profiling Assay
Type in all cases: biochemical
Settings in all cases: 100 μM peptide
[1] = biological target: T1, ULK2(h) (Homo sapiens, UniProt Q8IYT8)
T1 sequence (Q8IYT8 1-1036): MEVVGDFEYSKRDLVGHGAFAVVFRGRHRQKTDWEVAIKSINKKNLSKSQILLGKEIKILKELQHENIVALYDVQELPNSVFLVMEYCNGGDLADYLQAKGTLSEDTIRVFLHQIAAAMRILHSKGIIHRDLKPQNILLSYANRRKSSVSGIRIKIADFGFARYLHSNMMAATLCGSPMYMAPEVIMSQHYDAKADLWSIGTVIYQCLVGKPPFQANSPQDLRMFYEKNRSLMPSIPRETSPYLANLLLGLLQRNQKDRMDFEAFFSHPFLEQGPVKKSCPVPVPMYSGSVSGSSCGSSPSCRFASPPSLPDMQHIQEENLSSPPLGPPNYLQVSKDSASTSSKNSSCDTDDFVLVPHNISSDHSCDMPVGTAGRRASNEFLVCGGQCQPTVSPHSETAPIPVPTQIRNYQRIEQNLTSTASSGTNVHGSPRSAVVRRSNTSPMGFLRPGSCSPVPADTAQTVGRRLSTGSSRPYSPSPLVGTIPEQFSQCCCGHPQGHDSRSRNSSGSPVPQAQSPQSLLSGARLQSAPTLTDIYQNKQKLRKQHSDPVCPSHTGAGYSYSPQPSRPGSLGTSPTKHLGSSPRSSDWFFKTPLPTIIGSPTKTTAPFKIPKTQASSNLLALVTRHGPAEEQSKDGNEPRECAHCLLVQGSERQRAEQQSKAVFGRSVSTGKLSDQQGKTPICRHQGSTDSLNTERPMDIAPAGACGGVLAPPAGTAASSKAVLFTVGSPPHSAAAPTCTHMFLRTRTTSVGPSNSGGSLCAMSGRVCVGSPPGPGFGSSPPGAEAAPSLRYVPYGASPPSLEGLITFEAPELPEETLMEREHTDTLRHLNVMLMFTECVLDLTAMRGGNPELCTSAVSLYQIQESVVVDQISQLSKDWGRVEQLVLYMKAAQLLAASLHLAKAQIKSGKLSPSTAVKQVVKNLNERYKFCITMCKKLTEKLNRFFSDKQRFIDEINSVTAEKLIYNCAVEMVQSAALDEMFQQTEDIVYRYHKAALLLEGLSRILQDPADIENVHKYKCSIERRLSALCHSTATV
Procedure, shortened: (§1)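 Peptides designed to inhibit MK2 were checked against a broad human kinase panel (266 enzymes), with duplicate measurement of every activity.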

[2] = biological target: Pim-2(h) (Homo sapiens, UniProt Q9P1W9)
Sequence of Pim-2(h) (Q9P1W9 whole entry): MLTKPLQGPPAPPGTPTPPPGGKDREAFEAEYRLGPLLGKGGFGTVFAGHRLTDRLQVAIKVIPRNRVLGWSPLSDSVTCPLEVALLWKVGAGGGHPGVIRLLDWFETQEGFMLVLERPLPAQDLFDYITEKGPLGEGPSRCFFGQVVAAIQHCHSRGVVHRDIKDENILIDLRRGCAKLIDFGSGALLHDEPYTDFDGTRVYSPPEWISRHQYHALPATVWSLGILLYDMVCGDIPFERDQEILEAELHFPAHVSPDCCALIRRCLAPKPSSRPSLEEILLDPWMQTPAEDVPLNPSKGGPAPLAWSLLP
Procedure, shortened: as §1

[3] = biological target: EGFR(L861Q)(h) (Homo sapiens, UniProt P00533, L861Q)
Procedure, shortened: as §1

[4] = biological target: PKBβ(h) (Homo sapiens, UniProt P31751)
Sequence of PKBβ(h) (P31751 whole entry): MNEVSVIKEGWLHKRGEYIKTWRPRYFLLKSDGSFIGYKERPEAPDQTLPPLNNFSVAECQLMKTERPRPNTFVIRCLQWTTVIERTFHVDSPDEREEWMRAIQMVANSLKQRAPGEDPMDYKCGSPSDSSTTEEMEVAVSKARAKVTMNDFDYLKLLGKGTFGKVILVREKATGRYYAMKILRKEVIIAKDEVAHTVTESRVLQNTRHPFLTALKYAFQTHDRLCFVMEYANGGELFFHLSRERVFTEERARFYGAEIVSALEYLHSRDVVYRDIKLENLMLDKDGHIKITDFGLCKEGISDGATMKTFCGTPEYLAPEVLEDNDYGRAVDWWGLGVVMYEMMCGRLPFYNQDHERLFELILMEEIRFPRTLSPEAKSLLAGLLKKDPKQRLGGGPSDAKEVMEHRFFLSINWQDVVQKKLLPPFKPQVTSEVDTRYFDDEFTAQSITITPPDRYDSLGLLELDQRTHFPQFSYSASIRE
Procedure, shortened: as §1

[5] = biological target: T2, SGK2(h) (Homo sapiens, UniProt Q9HBY8)
T2 sequence (Q9HBY8 1-367): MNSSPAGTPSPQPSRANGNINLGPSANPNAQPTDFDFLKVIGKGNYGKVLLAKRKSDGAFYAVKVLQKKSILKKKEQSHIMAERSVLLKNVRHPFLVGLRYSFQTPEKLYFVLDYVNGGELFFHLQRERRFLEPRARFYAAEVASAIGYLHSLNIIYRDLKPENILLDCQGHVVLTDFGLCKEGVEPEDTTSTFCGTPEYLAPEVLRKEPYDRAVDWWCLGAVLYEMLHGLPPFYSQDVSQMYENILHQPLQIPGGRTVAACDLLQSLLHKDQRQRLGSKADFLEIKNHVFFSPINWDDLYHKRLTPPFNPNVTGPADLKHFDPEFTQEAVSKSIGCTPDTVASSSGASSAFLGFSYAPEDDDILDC
Procedure, shortened: as §1

[6] = biological target: T3, EphB1(h) (Homo sapiens, UniProt P54762)
T3 sequence (P54762 18-984): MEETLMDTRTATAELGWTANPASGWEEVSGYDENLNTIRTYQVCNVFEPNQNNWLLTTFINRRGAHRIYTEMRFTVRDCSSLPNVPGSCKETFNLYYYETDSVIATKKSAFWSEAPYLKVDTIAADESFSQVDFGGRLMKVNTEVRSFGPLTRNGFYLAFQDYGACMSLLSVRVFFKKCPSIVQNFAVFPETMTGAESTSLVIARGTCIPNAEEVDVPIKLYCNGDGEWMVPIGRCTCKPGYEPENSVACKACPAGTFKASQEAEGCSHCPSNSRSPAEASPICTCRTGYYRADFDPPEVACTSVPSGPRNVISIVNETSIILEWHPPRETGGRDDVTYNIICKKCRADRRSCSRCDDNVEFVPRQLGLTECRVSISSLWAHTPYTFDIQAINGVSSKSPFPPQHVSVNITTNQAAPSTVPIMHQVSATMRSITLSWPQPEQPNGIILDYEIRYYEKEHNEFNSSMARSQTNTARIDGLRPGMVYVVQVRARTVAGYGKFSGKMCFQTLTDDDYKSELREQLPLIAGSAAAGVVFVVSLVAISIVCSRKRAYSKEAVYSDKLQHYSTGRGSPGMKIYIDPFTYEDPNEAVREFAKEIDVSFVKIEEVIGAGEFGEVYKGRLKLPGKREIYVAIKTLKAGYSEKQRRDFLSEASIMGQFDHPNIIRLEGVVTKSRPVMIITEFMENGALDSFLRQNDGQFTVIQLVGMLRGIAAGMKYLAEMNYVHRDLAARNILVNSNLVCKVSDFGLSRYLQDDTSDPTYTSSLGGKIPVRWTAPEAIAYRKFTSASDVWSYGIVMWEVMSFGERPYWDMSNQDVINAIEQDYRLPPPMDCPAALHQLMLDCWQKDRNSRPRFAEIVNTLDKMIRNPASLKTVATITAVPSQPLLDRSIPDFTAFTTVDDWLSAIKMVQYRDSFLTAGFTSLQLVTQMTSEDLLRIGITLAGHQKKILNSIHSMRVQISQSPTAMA
Procedure, shortened: as §1

[7] = biological target: SRPK1(h) (Homo sapiens, UniProt Q96SB4)
Sequence of SRPK1(h) (Q96SB4 whole entry): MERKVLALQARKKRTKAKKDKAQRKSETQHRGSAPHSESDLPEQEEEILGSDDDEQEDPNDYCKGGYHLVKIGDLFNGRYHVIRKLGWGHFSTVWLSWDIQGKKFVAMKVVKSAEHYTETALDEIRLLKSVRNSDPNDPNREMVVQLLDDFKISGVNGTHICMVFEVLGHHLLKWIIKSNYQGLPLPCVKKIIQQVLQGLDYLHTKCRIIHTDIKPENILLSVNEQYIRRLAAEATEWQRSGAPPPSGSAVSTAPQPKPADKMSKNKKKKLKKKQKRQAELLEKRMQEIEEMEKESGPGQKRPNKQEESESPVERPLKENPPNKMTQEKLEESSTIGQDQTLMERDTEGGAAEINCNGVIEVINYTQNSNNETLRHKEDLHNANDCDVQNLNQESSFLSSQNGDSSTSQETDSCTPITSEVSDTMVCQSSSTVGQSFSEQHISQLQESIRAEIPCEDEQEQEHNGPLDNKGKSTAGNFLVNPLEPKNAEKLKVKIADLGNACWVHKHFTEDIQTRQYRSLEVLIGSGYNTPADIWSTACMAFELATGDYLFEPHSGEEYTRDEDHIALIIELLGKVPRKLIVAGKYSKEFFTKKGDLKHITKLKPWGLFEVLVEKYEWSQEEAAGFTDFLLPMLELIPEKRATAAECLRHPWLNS
Procedure, shortened: as §1

Sequence | ULK2(h) % activity [1] [%] | Pim-2(h) % activity [2] [%] | EGFR(L861Q)(h) % activity [3] [%] | PKBβ(h) % activity [4] [%] | SGK2(h) % activity [5] [%] | EphB1(h) % activity [6] [%] | SRPK1(h) % activity [7] [%]
FAKLAARLYRKALARQLGVAA [MMI-0300] | 122 | 76 | 25 | 84 | 56 | 44 | 90
HRRIKAWLKKIKALARQLGVAA (Mammalian) [MMI-0500] | 124 | 46 | 15 | 21 | −1 | 37 | 80
KAFAKLAARLYRKALARQLGVAA [MMI-0400] | 131 | 92 | 22 | 98 | 98 | 58 | 96
YARAAARQARAKALNRQLGVA (Mammalian) [MMI-0200] | 132 | 74 | 74 | 250 |  | 95 | 93
